The labels stand for the following.
B1: TPR t1 (parent)
chain: GACCAAUCUGCCCUCAGAGCUCGAGAACAUCUUCGGAUGCAGAGGAGGCAGGCUUCGGUGGCGCGAUAGCGCCAACGUCCUCAACCUCCAAUGCAUCCCACCACAUGAUGAUGCCUGAAGAGCCUUGGUUUUUUG

In this data set the parent is B1. As to the kind of experiment: polymerase ribozyme fitness, log enrichment relative to wild type (log ratio); higher = more active; in vitro selection for triplet polymerase activity. The essentials:
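Mutant libraries of both subunits of a heterodimeric triplet polymerase ribozyme were PCR-built, transcribed, and selected once in triplicate, with frozen incubation at −7 °C and capture of gel-excised extended constructs on streptavidin beads before RT-PCR. Illumina sequencing of input and output libraries was filtered to genotypes with ≥10 input reads and ≥1 read per output. Fitness is the logarithm of genotype enrichment over wild-type enrichment, using inverse-variance-weighted replicate averages. The logarithm is base 2.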
Turning to C56A G128U, the “polymerase ribozyme fitness (log ratio)” value was -2.53.

Regarding C56G A68G, the “polymerase ribozyme fitness (log ratio)” value is -3.1.

Consider C56U C89U, for which the “polymerase ribozyme fitness (log ratio)” value was -0.281.

Regarding U55A U87A G122A, the “polymerase ribozyme fitness (log ratio)” value is -0.825. For the variant U55A C85U, the “polymerase ribozyme fitness (log ratio)” value is -1.1.

Take G58C U126C: the “polymerase ribozyme fitness (log ratio)” value was -1.22. Next, C56G U132C: -0.811; C56U U96C C99U: -3.29. Next, C56A C64G: -5.92. As for C56A U132A, the “polymerase ribozyme fitness (log ratio)” value turned out to be 0.197. The value for C56G G69C A83C C104U was -5.43; that for C56A C62A C79A was -6.19. On to U54G G107U, for which the “polymerase ribozyme fitness (log ratio)” value is -5.37.

Consider U55G U132A, for which the “polymerase ribozyme fitness (log ratio)” value was -0.283.

For the variant C56G C86U U112A A118G A119G, the “polymerase ribozyme fitness (log ratio)” value stood at 1.32. In the case of G58C C73U C86G, the “polymerase ribozyme fitness (log ratio)” value was -0.297. On to C56U C80A, for which the “polymerase ribozyme fitness (log ratio)” value is -1.98.

C56A A90U: the “polymerase ribozyme fitness (log ratio)” value is -1.48. The value for U54G C101U U106A U116G was -3.87; that for G58U C114U was -2.25. With G58A U78G, the “polymerase ribozyme fitness (log ratio)” value was 0.00664. The value for C56G C123U was 0.748; that for C56G C123A was 0.0294; that for C56U U116G was -2.23. As to C56U U116A, the “polymerase ribozyme fitness (log ratio)” value is -2.51. The value for U55G G93A G117U was -3.04. Take G57U A75G A83C G117A: the “polymerase ribozyme fitness (log ratio)” value was -2. The value for C56U G69C G71A C79A G113U was -6.83; that for U55C U130G was -1.43; that for G57A C94G was -2.36.

In the case of C56U A66U G69U C80A A121C U130A, the “polymerase ribozyme fitness (log ratio)” value is -6.49. Consider C56A C80A U116G, for which the “polymerase ribozyme fitness (log ratio)” value is -4.93. The value for G57U A119G was 1.22. U55G C56A: the “polymerase ribozyme fitness (log ratio)” value was -0.837. Next, U55G C56G: -1.53; C56A G63A G93A A100C C124U: -4.2. Next, C56A G61A A111G U125C: -2.99. C56U G57C G69C: the “polymerase ribozyme fitness (log ratio)” value is -0.611. Turning to U55G C62G C123U, the “polymerase ribozyme fitness (log ratio)” value was -0.0735. Next, C56U C76A G93A G120C: -4.53. Next, C56A A100G C102U U112C G127C: -2.2; G57A U81A C104U: -1.98; C56U C70U C82G C124A U130C: 0.377.

With G57A G61A A90G C124A, the “polymerase ribozyme fitness (log ratio)” value came to 0.849. Turning to C56U C102A, the “polymerase ribozyme fitness (log ratio)” value is -1.94. Next, C56U C102U: -2.28. Next, G57C G69C U131A: -0.151; C56A C79A: -1.77. Consider U54C U116A U131C, for which the “polymerase ribozyme fitness (log ratio)” value is -3.16. The value for G58C A118G G120C was -0.431; that for U54G A95C U133A was -1.48. In the case of C56G U92C C123A, the “polymerase ribozyme fitness (log ratio)” value was -1.13. As for C56U C72U U112G G117U C124U, the “polymerase ribozyme fitness (log ratio)” value is -2.21. Next, U55C C70U C85A: -2.03; C56U A105U: -2.17; C56A U87G G113U: -3.92. The value for G57A C82U A105G G120U was -4.95; that for C56G A95G was -1.22. In the case of C56A G61C C62U C72G C89U, the “polymerase ribozyme fitness (log ratio)” value was -0.49.

As to C56G C88U, the “polymerase ribozyme fitness (log ratio)” value is -0.184. The value for C56U G110U C114U U125A was -3.23; that for G57U U78A C80U was -0.707; that for C56A C104G A118G C124G was -5.79.

On to U55G C62A C88G, for which the “polymerase ribozyme fitness (log ratio)” value is -2.24. Consider U55A G57A G61A G77A U87A A100C, for which the “polymerase ribozyme fitness (log ratio)” value is -1.72. Next, C56U C104A: -1.58; U55A G77U C115U U125A: -1.02.

For the variant G58C U96A C97A C104A G120U G128C, the “polymerase ribozyme fitness (log ratio)” value is -7.29.

For C56U C72U U78A C80A, the “polymerase ribozyme fitness (log ratio)” value was -4.1.

Consider C56G C86A, for which the “polymerase ribozyme fitness (log ratio)” value is -1.6. Next, C56A C80U A111U: -4; C56U G65A A83U: -6.42; G57U C82G A95G A111U C123U: -5.66.

In the case of U55G C56U A95U, the “polymerase ribozyme fitness (log ratio)” value is -1.91. Next, C56U G69U C79U G120A U130G: -1.59; G57C C82G C97U: -1.07; U54C U106A C124U: 2.23. Next, U54G G63A G69U U78G C102A U106G G120C: -6.62; U54G C62G: -5.55; G57A C73U U78A C99U G128C: -6.66.

In the case of G58A C76U, the “polymerase ribozyme fitness (log ratio)” value was -0.743. As to G57C C62G C104A, the “polymerase ribozyme fitness (log ratio)” value was -5.81.

As to G57A, the “polymerase ribozyme fitness (log ratio)” value is -0.653. Consider G57U, for which the “polymerase ribozyme fitness (log ratio)” value was -0.128.

Turning to G57C, the “polymerase ribozyme fitness (log ratio)” value was -0.176.

As to C56G G63A, the “polymerase ribozyme fitness (log ratio)” value is -2.75. For C56U U92C U106A, the “polymerase ribozyme fitness (log ratio)” value was -0.561.

Regarding C56U A105C C123U, the “polymerase ribozyme fitness (log ratio)” value is -1.18. As for G58A C73A A84G A103G C124G, the “polymerase ribozyme fitness (log ratio)” value is -7.11. Regarding C56G G71C, the “polymerase ribozyme fitness (log ratio)” value was -3.19. The value for C56G G71U was -3.27; that for G58C A118U G127C was -1.14. Take G58A G61A C85A G113A: the “polymerase ribozyme fitness (log ratio)” value came to 0.19. For the variant C56G C114A, the “polymerase ribozyme fitness (log ratio)” value was -2. C56G C70U U96G C101U A111U: the “polymerase ribozyme fitness (log ratio)” value was -5.15. Next, G57C C85G C114U A119C: -6.42; C56A G120C: 0.484. Next, U55G C70G A100C: -3.29; C56U G117U: -1.63. C56U G69C C89U C123U: the “polymerase ribozyme fitness (log ratio)” value is -7.26. Next, G58A G77U U81A U87C C102A: -4.48; G57U U78A G117A G135U: -2.21; G57A C70A: -3.43. Next, U54G G57C: -1.44; U55G G60U A103U: -5.31. Take C56A A66G A75G: the “polymerase ribozyme fitness (log ratio)” value was -0.927. As for C56A G58C C114U, the “polymerase ribozyme fitness (log ratio)” value is -2.47. Regarding C56A C72G, the “polymerase ribozyme fitness (log ratio)” value was -0.848. Regarding C56G G135U, the “polymerase ribozyme fitness (log ratio)” value is -1.35. The value for C56A C123A was 0.85.

Consider U54C U109A G120C, for which the “polymerase ribozyme fitness (log ratio)” value was -5.52. The value for C56G G77U C115G was -3.16; that for C56U G128U was -1.65; that for U54G G71U A74U G113C A121U was -7.2. U54G C80A C88A: the “polymerase ribozyme fitness (log ratio)” value is -4.43. Next, C56U C97U U106A G127U: -0.714. Next, G58A G61A G120A: 0.579. Regarding G58U A119G, the “polymerase ribozyme fitness (log ratio)” value stood at 0.849. Next, C56U G61A U112G A121U: -6.37; G57C U59A: -0.128; G57U G63C: -1.73. For the variant G58C G60C A111U, the “polymerase ribozyme fitness (log ratio)” value is -3.12. Consider G57U C72U A83U A111U, for which the “polymerase ribozyme fitness (log ratio)” value was -4.12. For the variant C56A C70G C124A G127A, the “polymerase ribozyme fitness (log ratio)” value was -2.78.

On to C56A C88U C124A U133C, for which the “polymerase ribozyme fitness (log ratio)” value amounted to 2.43. Next, G58A C123G: 2.11; C56U C72G U129A: -1.89; C56A A83U: -1.62.

As for C56U C85G A91U C101U U106C, the “polymerase ribozyme fitness (log ratio)” value is -4.05. Next, C56A C72U G110A G122U: -2.87; C56G C64A U106C C114U: -6.98; G57C C73A G117C: -4.45. The value for G58C A111G was 0.509. C56A U87A U106A: the “polymerase ribozyme fitness (log ratio)” value is -0.176. Consider C56U G60A C98U G117C C124U U130A, for which the “polymerase ribozyme fitness (log ratio)” value is -6.06.

For the variant C56G C72U C124U, the “polymerase ribozyme fitness (log ratio)” value was -0.654. In the case of G57U U116A, the “polymerase ribozyme fitness (log ratio)” value was -3.39. In the case of U54C U78G G117U, the “polymerase ribozyme fitness (log ratio)” value is -3.85. On to C56A G58C C62U C101A C104U, for which the “polymerase ribozyme fitness (log ratio)” value is -1.18. In the case of C56U U59A C101U G122A, the “polymerase ribozyme fitness (log ratio)” value is -1.81. The value for G57A C114U was -3.27; that for C56A U96A was -1.63.

Turning to C56A G69C C79U G113U G117A, the “polymerase ribozyme fitness (log ratio)” value is -5.4. Next, U55A G63C C72U G77C C104A: -5.29.

Take C56G G69C U87C G110A: the “polymerase ribozyme fitness (log ratio)” value was -5.42. The value for C56U G65C was -5.42; that for G57C C89A G117U A118G U130C G135U was -2.49. Next, C56U C70U U78G U125G: -1.77; C56U G61U C82A A91G C114U: -6.55.

Take C56U A84G A91U C98A C99A G120U: the “polymerase ribozyme fitness (log ratio)” value is -7.08. The value for G58C C70U G110C A121U was -5.63; that for U55G G58C C79A was -3.4.

Turning to C56U G93A, the “polymerase ribozyme fitness (log ratio)” value was -0.279. The value for C56U G93C was -0.768; that for C56G A111G was 0.245. With C56G A111C, the “polymerase ribozyme fitness (log ratio)” value was -0.855.

On to G58U G71A C79A A103G C115U, for which the “polymerase ribozyme fitness (log ratio)” value is -7.13. In the case of C56U C73U C76U, the “polymerase ribozyme fitness (log ratio)” value was -2.54. C56G G60U: the “polymerase ribozyme fitness (log ratio)” value was -1.44. The value for C56U A111C was -0.414; that for C56U C99U was -3.34; that for C56U C99A was -6.27. Next, C56G C73U: -0.89; C56U C70U: -0.666; G57U G60A C114A U129A: -3.12.

Turning to C56A G71U U81C A111U C115U, the “polymerase ribozyme fitness (log ratio)” value is -6.9. Next, C56A U129G: -2.29.

The record behind these values is the RNAGym collection of RNA variant scans (doi:10.1073/pnas.2313332121).
